The data set concerns the molecule itself. Description: SEC; Superdex S200 HR 10/300, 10 mM HEPES pH 8.0, 100 mM NaCl, protein ~20 mg/ml, 0.2 ml/min; calibrated with BSA, alcohol dehydrogenase, β-amylase. On the technique in general: Size exclusion chromatography separates by hydrodynamic size, large species first.

This note sets out measurements from article PMC6172425, “Structural basis of inactivation of human counterpart of mouse motor neuron degeneration 2 mutant in serine protease HtrA2” (Bioscience Reports, 2018).

Substitutions are numbered along the chain they refer to. Names and notes keep the numbering of the source.

B1: Recombinant mature (Δ133) human HtrA2 S276C (enzyme, UniProt O43464 134-458, looked up)
chain: AVPSPPPASPRSQYNFIADVVEKTAPAVVYIEILDRHPFLGREVPISNGSGFVVAADGLIVTNAHVVADRRRVRVRLLSGDTYEAVVTAVDPVADIATLRIQTKEPLPTLPLGRSADVRQGEFVVAMGSPFALQNTITSGIVCSAQRPARDLGLPQTNVEYIQTDAAIDFGNSGGPLVNLDGEVIGVNTMKVTAGISFAIPSDRLREFLHRGEKKNSSSGISGSQRRYIGVMMLTLSPSILAELQLREPSFPDVQHGVLIHKVILGSPAHRAGLRPGDVILAIGEQMVQNAEDVYEAVRTQSQLAVQIRRGRETLTLYVTPEVTE
notes: human serine protease HtrA2, mature processed form (Δ133): the 458 amino acid precursor without its first 133 residues, with S276C; Made by site-directed mutagenesis of the wild-type construct in pET-20b; also called hHtrA2S276C; human counterpart of the mouse mnd2 mutant; source: E. coli Rosetta (DE3), purified (Ni-NTA, gel filtration)
Consider B1, for which the binding result was “binds”.

B2: Recombinant mature (Δ133) human HtrA2, wild type (enzyme, UniProt O43464 134-458, looked up)
chain: B1 chain with C143S
notes: human serine protease HtrA2, mature processed form (Δ133): the 458 amino acid precursor without its first 133 residues, N-terminus AVPS; In pET-20b; PDB 1LCY is the S306A form of the mature protein; also called wt hHtrA2; hHtrA2; source: E. coli Rosetta (DE3), purified (Ni-NTA)
Consider B2, for which the binding result was “binds”.
